The series is described as follows: protein stability index of a GFP-peptide fusion (GPS, HEK-293T) (PSI 1-6); higher = more stable. As to conditions: c terminus: a fixed tail appended.

Drawing on the supplement of paper PMC10567573, this text covers protein stability index for 36 sequences.

± gives the standard deviation.
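Note: 24-mer peptide tiles fused after GFP, lentivirally expressed, FACS-sorted into six equal bins by GFP/DsRed ratio, decoded by Illumina sequencing, PSI is the read-weighted mean bin number.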

For the sequence QAQIHGLPVPPTPGLLSLATTSAS [TFE3], the protein stability index runs as follows: (treatment: DMSO) 3.86 ± 0.11; (treatment: MLN4924 1 uM, 8 h) 3.87 ± 0.18.

With QDSFEAAGNSTSGSRAGASSFSDP [KCNA3], the protein stability index runs as follows: (treatment: DMSO) 5.42 ± 0.31; (treatment: MLN4924 1 uM, 8 h) 5.35 ± 0.16.

With QEDSGLRDHSVRVLISNHVTPFDH [AUP1], the protein stability index came out at 3.9 ± 0.12 (treatment: DMSO) and 3.67 ± 0.29 (treatment: MLN4924 1 uM, 8 h).

For QEGLLDRCVSFQARFAEKEELMLV [HDAC6], the protein stability index is, setting by setting: (treatment: DMSO) 2.44 ± 0.34; (treatment: MLN4924 1 uM, 8 h) 2.52 ± 0.53.

As for QELNELFKPVVAAQKISKGADPKS [ZC3H15], the protein stability index runs as follows: (treatment: DMSO) 4.8 ± 0.13; (treatment: MLN4924 1 uM, 8 h) 4.92 ± 0.18.

With QERQMLQALKFLPVPSAPVIDLAE [FSD1], the protein stability index was found to be 3.47 ± 0.31 (treatment: DMSO) and 3.3 ± 0.25 (treatment: MLN4924 1 uM, 8 h).

With QGVEGDHCVTSDPATSPLVLAIPR [TRIM35], the protein stability index was determined as 4.43 ± 0.27 (treatment: DMSO) and 4.66 ± 0.22 (treatment: MLN4924 1 uM, 8 h).

QGVISQLEDTCKTIEECCRKQKQE [TRIM55] came in with a protein stability index (treatment: DMSO) of 5.2 ± 0.29 and a protein stability index (treatment: MLN4924 1 uM, 8 h) of 5.34 ± 0.31.

As to QHGQLGTNTRRGSRAPCKVQGLEG [NEK8], the protein stability index is, setting by setting: (treatment: DMSO) 4.18 ± 0.15; (treatment: MLN4924 1 uM, 8 h) 4.19 ± 0.19.

As for QHNLCRKCASDIFQASNPYLPTRG [TRIM55], the protein stability index came to 2.29 ± 0.26 (treatment: DMSO) and 2.45 ± 0.22 (treatment: MLN4924 1 uM, 8 h).

Turning to QKEQGLSDNILSPVMNGGVQTWTQ [PDZK1], the protein stability index by setting is: (treatment: DMSO) 2.84 ± 0.5; (treatment: MLN4924 1 uM, 8 h) 3.32 ± 0.71.

As to QLCGKTFLTLEKFTIHNYSHSRER [PLAGL1], the protein stability index (treatment: DMSO) stood at 2.15 ± 0.57 and the protein stability index (treatment: MLN4924 1 uM, 8 h) came to 2.27 ± 0.27.

Regarding QLDWDELETNQQHFHALCHSLLVS [M1AP], the protein stability index is 2.3 ± 0.29 (treatment: DMSO) and 2.69 ± 0.45 (treatment: MLN4924 1 uM, 8 h).

For QLEEGLKDTDLARVRRFQVVEVTK [M1AP], the protein stability index worked out at 4.06 ± 0.15 (treatment: DMSO) and 4.04 ± 0.32 (treatment: MLN4924 1 uM, 8 h).

Turning to QLGDLHTCLMMDMKACQEDDVRLL [INTS3], the protein stability index stood at 3.41 ± 0.18 (treatment: DMSO) and 3.56 ± 0.19 (treatment: MLN4924 1 uM, 8 h).

Consider QMTNIGVYVSNMTDKLVTPGKYFS [IQUB], for which the protein stability index reads like this: (treatment: DMSO) 2.31 ± 0.5; (treatment: MLN4924 1 uM, 8 h) 2.49 ± 0.28.

QNHGQHLILSREASWAKPHYEFNL [LCOR] displayed a protein stability index (treatment: DMSO) of 2.28 ± 0.23 and a protein stability index (treatment: MLN4924 1 uM, 8 h) of 2.51 ± 0.35.

Regarding QNKIRACGERLSLGLSRAQPVQSK [PDLIM7], the protein stability index reads like this: (treatment: DMSO) 3.92 ± 0.28; (treatment: MLN4924 1 uM, 8 h) 3.85 ± 0.2.

The sequence QNPRQVAQSEAEKKLKKDDKKKEL [ZC3H15] came in with a protein stability index (treatment: DMSO) of 5.52 ± 0.22 and a protein stability index (treatment: MLN4924 1 uM, 8 h) of 5.58 ± 0.19.

For QPPLTYKRFQTLISKMEPLEIPVE [CRY1], the protein stability index turned out to be 2.97 ± 0.39 (treatment: DMSO) and 2.79 ± 0.34 (treatment: MLN4924 1 uM, 8 h).

Turning to QPPQSQAQVPPAAPHHHHHHSHSG [PLK2], the protein stability index by setting is: (treatment: DMSO) 4.71 ± 0.2; (treatment: MLN4924 1 uM, 8 h) 4.64 ± 0.13.

As to QPQALLVDGDQSKILISGLEPSTP [TNXB], the protein stability index stood at 4.73 ± 0.31 (treatment: DMSO) and 4.69 ± 0.23 (treatment: MLN4924 1 uM, 8 h).

With QPTIVEALLGYEMVQVACGASHVL [NEK8], the protein stability index by setting is: (treatment: DMSO) 2.75 ± 0.45; (treatment: MLN4924 1 uM, 8 h) 2.74 ± 0.7.

For QQIQGLISSIEAQLSELRSEMECQ [KRT13], the protein stability index runs as follows: (treatment: DMSO) 3.6 ± 0.14; (treatment: MLN4924 1 uM, 8 h) 3.44 ± 0.5.

For the sequence QSFIIPLERYVASLMPLQKSISPW [DENND6A], the protein stability index reads like this: (treatment: DMSO) 2.25 ± 0.04; (treatment: MLN4924 1 uM, 8 h) 2.46 ± 0.56.

Consider QVYKETRLFLDGEEEKEWAFEESK [AASDHPPT], for which the protein stability index is, setting by setting: (treatment: DMSO) 4.56 ± 0.26; (treatment: MLN4924 1 uM, 8 h) 4.74 ± 0.15.

In turn, RAAAQQRRSFLNAHHRSGAQVFPE [GNAS] displayed a protein stability index (treatment: DMSO) of 3.53 ± 0.12 and a protein stability index (treatment: MLN4924 1 uM, 8 h) of 3.5 ± 0.23.

With RAALISRRHLQFWKSHLKKVQKPL [RHOBTB1], the protein stability index came to 2.22 ± 0.16 (treatment: DMSO) and 2.54 ± 0.34 (treatment: MLN4924 1 uM, 8 h).

As for RAGGGGGGDYGLVTAGCGFGKDFR [PPTC7], the protein stability index runs as follows: (treatment: DMSO) 3.33 ± 0.51; (treatment: MLN4924 1 uM, 8 h) 3.13 ± 0.21.

With RAVVEAVHRLDLILCNKTAYQEVF [SMG5], the protein stability index runs as follows: (treatment: DMSO) 2.92 ± 0.43; (treatment: MLN4924 1 uM, 8 h) 2.92 ± 0.85.

With RCGVPDVAQFVLTEGNPRWEQTHL [MMP1], the protein stability index was 2.42 ± 0.4 (treatment: DMSO) and 2.3 ± 0.24 (treatment: MLN4924 1 uM, 8 h).

In turn, RDCLVLNQGYLSEAGASLVDQKLE [PI4K2A] displayed a protein stability index (treatment: DMSO) of 4.29 ± 0.28 and a protein stability index (treatment: MLN4924 1 uM, 8 h) of 4.54 ± 0.11.

For RDDLDRLGVFLDYEAGVLAFYDVT [TRIM14], the protein stability index runs as follows: (treatment: DMSO) 2.55 ± 0.31; (treatment: MLN4924 1 uM, 8 h) 2.06 ± 0.53.

On to RDLAARWKKLVLVDRNTRPGPQDP [ELOA2], for which the protein stability index runs as follows: (treatment: DMSO) 3.38 ± 0.19; (treatment: MLN4924 1 uM, 8 h) 3.49 ± 0.23.

On to REAEKQNYLAEHCPPLHIPGSMSE [TNNI2], for which the protein stability index runs as follows: (treatment: DMSO) 4.67 ± 0.25; (treatment: MLN4924 1 uM, 8 h) 4.72 ± 0.31.

Consider REDDKLVVECVMKGVTSTRVYERA [FABP4], for which the protein stability index worked out at 3.68 ± 0.38 (treatment: DMSO) and 4.09 ± 0.29 (treatment: MLN4924 1 uM, 8 h).
